{"source": "paper PMC5895748", "target": "human Toll-like receptor 5 (hTLR5) (human) (UniProt O60602)", "sequence (O60602 21-858)": "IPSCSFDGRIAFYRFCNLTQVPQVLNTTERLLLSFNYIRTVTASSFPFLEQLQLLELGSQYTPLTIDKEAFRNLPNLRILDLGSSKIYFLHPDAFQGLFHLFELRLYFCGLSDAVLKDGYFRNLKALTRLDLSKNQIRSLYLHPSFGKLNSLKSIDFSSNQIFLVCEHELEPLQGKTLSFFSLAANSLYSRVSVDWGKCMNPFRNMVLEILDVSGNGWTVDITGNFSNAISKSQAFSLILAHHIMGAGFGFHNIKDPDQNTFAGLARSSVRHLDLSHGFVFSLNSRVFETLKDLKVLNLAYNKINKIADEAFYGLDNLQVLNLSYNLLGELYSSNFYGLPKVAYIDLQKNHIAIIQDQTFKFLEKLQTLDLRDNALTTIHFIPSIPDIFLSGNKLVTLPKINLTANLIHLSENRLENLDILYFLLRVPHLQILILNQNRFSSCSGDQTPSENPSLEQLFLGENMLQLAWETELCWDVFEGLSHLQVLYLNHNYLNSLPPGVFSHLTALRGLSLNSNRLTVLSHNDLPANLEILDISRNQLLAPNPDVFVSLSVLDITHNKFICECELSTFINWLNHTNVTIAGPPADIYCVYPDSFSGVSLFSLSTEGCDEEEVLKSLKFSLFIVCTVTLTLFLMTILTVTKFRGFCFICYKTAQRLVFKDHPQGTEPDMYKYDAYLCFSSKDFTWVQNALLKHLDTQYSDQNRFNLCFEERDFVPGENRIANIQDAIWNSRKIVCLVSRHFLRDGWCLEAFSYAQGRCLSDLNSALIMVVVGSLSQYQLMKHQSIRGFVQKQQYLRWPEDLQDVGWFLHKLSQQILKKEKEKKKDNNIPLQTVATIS", "data": [{"substance": "BcFlg^nF, T4 lysozyme fused to the N-terminal end of BcFlg", "values": [{"measurement": "EC50 of TLR5 stimulation, HEK293blue-hTLR5 reporter cells (NF-kB-inducible SEAP)", "value": 44.2, "unit": "pM"}]}, {"substance": "Bacillus cereus flagellin BC1659 (natural protein)", "values": [{"measurement": "EC50 of TLR5 stimulation, HEK293blue-hTLR5 reporter cells (NF-kB-inducible SEAP)", "value": 55.4, "unit": "pM"}]}, {"substance": "BcFlg^cF, T4 lysozyme fused to the C-terminal end of BcFlg", "values": [{"measurement": "EC50 of TLR5 stimulation, HEK293blue-hTLR5 reporter cells (NF-kB-inducible SEAP)", "value": 2.3, "unit": "pM"}, {"measurement": "EC50 of TLR5 stimulation, HEK293blue-hTLR5 reporter cells (SEAP); protein incubated at 37 °C for 24 hours before the assay", "value": 129, "unit": "pM"}]}, {"substance": "Bacillus cereus flagellin BC1658 (BcFlg) (natural protein)", "values": [{"measurement": "EC50 of TLR5 stimulation, HEK293blue-hTLR5 reporter cells (NF-kB-inducible SEAP)", "value": 1.7, "unit": "pM"}, {"measurement": "EC50 of TLR5 stimulation, HEK293blue-hTLR5 reporter cells (SEAP); protein incubated at 37 °C for 24 hours before the assay", "value": 1.9, "unit": "pM"}]}, {"substance": "BcFlg^mF, T4 lysozyme inserted into BcFlg residues 178-180", "values": [{"measurement": "EC50 of TLR5 stimulation, HEK293blue-hTLR5 reporter cells (NF-kB-inducible SEAP)", "value": 1.4, "unit": "pM"}, {"measurement": "EC50 of TLR5 stimulation, HEK293blue-hTLR5 reporter cells (SEAP); protein incubated at 37 °C for 24 hours before the assay", "value": 2.4, "unit": "pM"}]}]}
